As usually defined, the IC50 is the concentration that gives 50% inhibition.

We go through four molecules from patent EP1053001B1 (AMYLIN PHARMACEUTICALS, INC., dated 2010).

For test [1], the target named is T1, calcitonin receptors (human T47D / MCF7 breast carcinoma cells) (human, UniProt P30988 25-474).
T1 sequence (looked up): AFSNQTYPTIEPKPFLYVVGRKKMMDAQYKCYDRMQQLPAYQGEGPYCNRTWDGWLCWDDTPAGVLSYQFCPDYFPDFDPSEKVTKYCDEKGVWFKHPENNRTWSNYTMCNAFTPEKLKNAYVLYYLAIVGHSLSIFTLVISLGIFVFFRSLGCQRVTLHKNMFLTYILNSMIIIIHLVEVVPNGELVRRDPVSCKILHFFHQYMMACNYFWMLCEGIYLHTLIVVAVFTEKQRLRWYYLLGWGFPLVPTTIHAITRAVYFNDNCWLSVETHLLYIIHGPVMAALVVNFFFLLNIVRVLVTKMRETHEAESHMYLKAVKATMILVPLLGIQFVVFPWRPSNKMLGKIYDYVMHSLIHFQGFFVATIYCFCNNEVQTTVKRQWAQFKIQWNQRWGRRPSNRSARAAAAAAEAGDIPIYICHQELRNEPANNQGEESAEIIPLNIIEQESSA
The test is described as follows: cell-based or functional assay.

The target of test [2] is T2, rat calcitonin C1a receptor (rat, UniProt P32214 25-516).
T2 sequence (looked up): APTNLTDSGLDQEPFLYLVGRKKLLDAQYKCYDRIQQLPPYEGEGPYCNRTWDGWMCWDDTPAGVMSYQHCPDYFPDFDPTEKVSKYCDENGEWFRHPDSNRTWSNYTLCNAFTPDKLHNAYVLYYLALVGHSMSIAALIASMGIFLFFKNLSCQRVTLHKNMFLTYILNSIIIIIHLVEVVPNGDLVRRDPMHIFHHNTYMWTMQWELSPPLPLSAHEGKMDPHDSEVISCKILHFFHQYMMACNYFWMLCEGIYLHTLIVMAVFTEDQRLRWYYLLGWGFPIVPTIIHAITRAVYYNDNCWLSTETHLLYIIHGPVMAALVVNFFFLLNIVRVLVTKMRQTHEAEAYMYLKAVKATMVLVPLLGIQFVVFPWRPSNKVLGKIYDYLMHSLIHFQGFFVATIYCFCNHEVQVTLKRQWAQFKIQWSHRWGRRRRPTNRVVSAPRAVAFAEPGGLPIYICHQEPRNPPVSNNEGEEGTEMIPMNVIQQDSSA
Nature of the test: cell-based or functional assay.

The target of test [3] is T3, amylin receptors (rat nucleus accumbens membranes) (rat).
T3 construct: Assayed as a tissue membrane preparation, not on intact cells; also called amylin (nucleus accumbens) receptors
The test is described as follows: radioligand competition vs 125I-BH-rat amylin, rat nucleus accumbens membranes. Background: Displacement assays read how much labelled ligand stays bound in the presence of the test substance.

No end group written: not given here.

With XLSTAVLGRLSQELHRLQTYPRTNTGSNTY (acetylated with acetic anhydride (site not given)) [Compound 6], in test [1], the “fold lower potency than human calcitonin, adenylyl cyclase, MCF7-7 cells” value came to 80 fold.
Turning to LSTCVLGRLSQELHRLQTYPRTNTGSNTY (not fully specified) [Compound 1], in test [2], the “EC50 of adenyl cyclase stimulation, HEK293 cells stably transfected with rat calcitonin C1a receptor” value was determined as 0.97 nM.
In test [3], LSTSVLGRLSQELHRLQTYPRTNTGSNTY-NH2 [Compound 5] registered an IC50 of 0.092 nM. This lies in the picomolar range.
In test [3], LSTAVLGRLSQELHRLQTYPRTNTGSNTY-NH2 (not fully specified) [Compound 4] gave an IC50 of 0.066 nM.
